Literature values in US20200031943A1 (priority 2017, published 2020).
Like-named read-outs stand apart in the source and are kept apart here.

Settings: for percentage of patients reported as developing influenza / upper respiratory infections (percentage of patients): SLE patients; for percentage of patients reported as developing influenza: placebo 2.0%; for upper respiratory infections (percentage of patients): placebo 28.7%
[1] = 300 mg intravenous every 4 weeks for 48 weeks
[2] = 1,000 mg intravenous every 4 weeks for 48 weeks

## anifrolumab
[1]
  percentage of patients reported as developing influenza: 6.1%
  upper respiratory infections (percentage of patients): 36.4%
300 mg or 1,000 mg intravenous every 4 weeks for 48 weeks vs placebo
  incidence of serious adverse events: did not increase the incidence of serious adverse events
[2]
  percentage of patients reported as developing influenza: 7.6%
  upper respiratory infections (percentage of patients): 41.9%
anifrolumab-treatment group vs placebo
  frequency of herpes zoster and influenza infections: slightly more frequent
